# Legend:
# Assay in all cases: SEC; protein at 500 ug/mL incubated 3 hours at 30°C, then Superdex 75 in 50 mM Tris-HCl pH 8.0, 150 mM NaCl, 5% (v/v) glycerol, calibrated with molecular mass standards; dimer to monomers
# [1] = biological target: human triosephosphate isomerase N15D mutant (human)
# [2] = biological target: human triosephosphate isomerase N15D/N71D double mutant (human)
# [3] = biological target: human triosephosphate isomerase N71D mutant (human)
substance,measurement,setting,value
human triosephosphate isomerase N15D mutant (enzyme),stoichiometry N,[1],2
human triosephosphate isomerase N15D/N71D double mutant (enzyme),stoichiometry N,[2],2
human triosephosphate isomerase N71D mutant (enzyme),stoichiometry N,[3],2

# — PMC4401446
